US20230303708A1

Target: hBCMA-41BB-CD3 CAR (CAR-PMC750)
Assay: FACS of CAR-T cells stained with biotinylated goat anti-mouse F(ab)'2 and PE-streptavidin, day 9 of expansion

hBCMA-41BB-CD3 CAR (CAR-PMC750), sequence (chain, as listed by the source): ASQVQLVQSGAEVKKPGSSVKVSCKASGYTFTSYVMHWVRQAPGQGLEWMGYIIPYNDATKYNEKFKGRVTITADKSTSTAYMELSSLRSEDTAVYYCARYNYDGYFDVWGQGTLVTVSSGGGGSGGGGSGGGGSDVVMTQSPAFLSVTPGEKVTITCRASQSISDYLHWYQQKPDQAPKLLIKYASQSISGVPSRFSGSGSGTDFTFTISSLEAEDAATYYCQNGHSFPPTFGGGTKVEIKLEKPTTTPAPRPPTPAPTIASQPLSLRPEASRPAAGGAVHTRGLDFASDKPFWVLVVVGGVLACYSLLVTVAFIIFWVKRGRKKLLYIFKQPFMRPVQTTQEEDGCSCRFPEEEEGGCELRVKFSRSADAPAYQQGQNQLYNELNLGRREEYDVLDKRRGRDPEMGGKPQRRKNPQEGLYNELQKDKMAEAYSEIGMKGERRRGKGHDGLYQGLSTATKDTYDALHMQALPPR

- percent CAR-positive cells: > 70%
Substance: biotin-conjugated goat anti-mouse F(ab)'2 (antibody)
